Data on two molecules can be found in paper doi:10.1101/794511.

What all share (assay): EMSA
For orientation: In EMSA bound probe runs differently from free probe, usually more slowly.

Data set [1] concerns the target Gsx2 N253A homeodomain fragment (Mus musculus, UniProt P31316 167-305, N253A).
Data set [2] has as its target Gsx2 homeodomain fragment (Mus musculus, UniProt P31316 167-305).
The target of the next data set is T1, E47 bHLH fragment (Mus musculus, UniProt P15806-2 430-648).
T1 sequence: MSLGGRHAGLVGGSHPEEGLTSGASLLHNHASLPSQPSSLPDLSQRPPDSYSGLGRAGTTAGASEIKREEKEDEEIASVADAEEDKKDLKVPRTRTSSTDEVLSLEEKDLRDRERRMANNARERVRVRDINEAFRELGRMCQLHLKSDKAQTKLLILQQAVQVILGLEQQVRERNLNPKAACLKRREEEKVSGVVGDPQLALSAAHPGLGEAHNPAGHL

Sequence of Gsx2 N253A homeodomain fragment (P31316 167-305 N253A): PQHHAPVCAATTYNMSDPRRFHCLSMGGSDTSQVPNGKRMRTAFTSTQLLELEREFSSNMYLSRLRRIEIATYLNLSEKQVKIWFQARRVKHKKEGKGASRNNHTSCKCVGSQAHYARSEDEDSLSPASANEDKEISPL
Sequence of Gsx2 homeodomain fragment (P31316 167-305): as the sequence (P31316 167-305 N253A) above, with A87N counted along it

B1: Gsx2_site (dsDNA)
DNA 1: CAGAGTGTAATTAACATTCAGTAGTGCGGGCGTGGCT
DNA 2: AGCCACGCCCGCACTACTGAATGTTAATTACACTCTG
Turning to B1, the results for the binding result in data set [1] and in data set [2] were “no binding” and “binds”, respectively.

B2: Ac-Luc E2 (dsDNA)
DNA 1: CACCAACAGCTGCGTTTTTAGTGCGGGCGTGGCT
DNA 2: AGCCACGCCCGCACTAAAAACGCAGCTGTTGGTG
On to B2, for which the binding result with E47 bHLH fragment was “binds”.
